From patent US20220340649A1 (SENELIX, published 2022) come the findings set out here.

Assay [1] has as its target T1, human YKL-40 (chitinase-3-like protein 1) (human, UniProt P36222 22-383).
T1 construct: Antigen protein immobilized in ELISA and on the Octet AR2G sensor; also called hYKL-40; human YKL-40 antigen
The experiment in a line: ELISA, purified IgG on antigen.

Assay [2] addresses T2, mouse YKL-40 (mouse, UniProt Q61362 30-389).
T2 construct: Antigen protein immobilized in ELISA and on the Octet AR2G sensor; also called mYKL-40; mouse YKL-40 antigen
The experiment in a line: Octet BLI, antigen immobilized on AR2G sensor. The protocol: (§1) To reconfirm the EC₅₀ value measured by ELISA, the affinity for 4E3-F2 (M3) and 3A10-F1 (H1) was measured using an Octet instrument. Cross-binding was investigated for the two antibodies using hYKL-40 and mYKL-40. Each antigen protein was immobilized using the AR2G (Amine Reactive 2nd Generation) sensor, and the direct immobilization method of binding each antibody with different concentrations (0-1 μM) was employed.
Background: BLI is a label-free optical method that tracks binding on a fibre tip over time.

Assay [3] deals with T1, human YKL-40 (chitinase-3-like protein …). The experiment in a line: ELISA, IgG titrated on hYKL-40, A450nm normalized.
Assay [4] has the same target. The experiment in a line: Octet BLI, antigen immobilized on AR2G sensor, antibody 0-1 µM; hYKL-40 on the sensor. As to the method: as §1
Assay [5] shares this target. The experiment in a line: ELISA, Fab protein titrated on hYKL-40 antigen, A450nm normalized. For orientation: ELISA stands for enzyme-linked immunosorbent assay.
Assay [6] addresses T2, mouse YKL-40. The experiment in a line: ELISA, Fab protein titrated on mYKL-40 antigen, A450nm normalized.
For assay [7], the target named is T2, mouse YKL-40. The experiment in a line: ELISA, purified IgG on antigen.
The target in assay [8] is T2, mouse YKL-40. The experiment in a line: Octet BLI, antigen immobilized on AR2G sensor, antibody 0-1 µM; mYKL-40 on the sensor. As to the method:
as §1

T2 sequence (Q61362 30-389): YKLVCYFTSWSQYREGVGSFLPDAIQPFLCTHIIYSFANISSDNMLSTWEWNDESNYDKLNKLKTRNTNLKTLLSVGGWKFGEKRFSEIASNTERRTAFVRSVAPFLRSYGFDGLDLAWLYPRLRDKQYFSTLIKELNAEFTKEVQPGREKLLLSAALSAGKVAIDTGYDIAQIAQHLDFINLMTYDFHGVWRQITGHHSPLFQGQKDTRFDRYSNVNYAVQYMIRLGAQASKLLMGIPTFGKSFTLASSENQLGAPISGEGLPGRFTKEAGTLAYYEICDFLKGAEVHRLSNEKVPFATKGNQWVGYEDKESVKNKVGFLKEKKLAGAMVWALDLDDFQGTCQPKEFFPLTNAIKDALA
T1 sequence (P36222 22-383 limits assumed): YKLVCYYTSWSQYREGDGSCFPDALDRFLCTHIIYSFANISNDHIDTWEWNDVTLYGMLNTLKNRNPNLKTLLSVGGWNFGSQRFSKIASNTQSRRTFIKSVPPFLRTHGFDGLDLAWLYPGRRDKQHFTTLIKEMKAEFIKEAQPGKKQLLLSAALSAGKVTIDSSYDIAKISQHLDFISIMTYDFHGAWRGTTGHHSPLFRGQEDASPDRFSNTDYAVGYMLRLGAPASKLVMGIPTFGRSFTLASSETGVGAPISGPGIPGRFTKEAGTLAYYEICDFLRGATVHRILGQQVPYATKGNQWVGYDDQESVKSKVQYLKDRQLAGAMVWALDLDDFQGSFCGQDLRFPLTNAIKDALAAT

B1: 3A10-F1 (H1) human IgG antibody (antibody, V domains shown)
VH: EVQLVESGGGLVQPGGSLRLSCAASGFTFSNYAMSWVRQAPGKGLEWVSGISGSGGTTYYADSVKGRFTISRDNSKNTLYLQMNSLRAEDTAVYYCAGVGTFDVWGQGTLVTVSS
VL: DIQMTQSPSSLSASVGDRVTITCRASQTISSWLNWYQQKPGKAPKLLIYAASRLQSGVPSRFSGSGSGTDFTLTISSLQPEDFATYYCQQSYSTPLTFGQGTKVEIK
notes: The phage clone was converted to human IgG and produced in Expi293 cells; also called human YKL-40 antibody 3A10-F1 (H1)
One may read the EC50 as the concentration at which the effect is half-maximal. A high value points to a need for much substance. As usually defined, the Kd is the free concentration of one partner at which half of the binding sites on the other are occupied at equilibrium, for simple one-to-one binding. A lower Kd goes with a tighter complex. Take B1: the EC50 came to 0.582 nM in assay [1] and 0.5 nM in assay [3]. Also, the binding result in assay [2] is “no binding (tested: 0-1 µM)”. For the same molecule, binding in assay [4] was put at a Kd of 0.05 nM.

B2: 4E3-F2 (M3) Fab (Fab, V domains shown)
VH: QVQLVQSGAEVKKPGSSVKVSCKASGGTFSSYDIHWVRQAPGQGLEWMGIISPYLGITIYAQKFQGRVTITADESTSTAYMELSSLRSEDTAVYYCARRYFYYQSEAFDYWGQGTLVTVSS
VL: DIQMTQSPSSLSASVGDRVTITCRASQSISNYLNWYQQKPGKAPKLLIYAASTLQSGVPSRFSGSGSGTDFTLTISSLQPEDFATYYCQQSYSFPLTFGQGTKVEIK
notes: Fab from the Fab-II phage library; also called Fab protein of 4E3-F2 (M3)
Regarding B2, the concentration giving a half-maximal response (EC50) in assay [5] turned out to be 23.6 nM; in assay [6], 4.3 nM.

B3: 3A10-F1 (H1) Fab (Fab, V domains shown)
VH: EVQLVESGGGLVQPGGSLRLSCAASGFTFSNYAMSWVRQAPGKGLEWVSGISGSGGTTYYADSVKGRFTISRDNSKNTLYLQMNSLRAEDTAVYYCAGVGTFDVWGQGTLVTVSS
VL: DIQMTQSPSSLSASVGDRVTITCRASQTISSWLNWYQQKPGKAPKLLIYAASRLQSGVPSRFSGSGSGTDFTLTISSLQPEDFATYYCQQSYSTPLTFGQGTKVEIK
notes: Fab from the Fab-I phage library; also called Fab protein of 3A10-F1 (H1)
In turn, B3 showed a half-maximal effective concentration (EC50) in assay [5] of 0.74 nM.

B4: 4E3-F2 (M3) human IgG antibody (antibody, V domains shown)
VH: QVQLVQSGAEVKKPGSSVKVSCKASGGTFSSYDIHWVRQAPGQGLEWMGIISPYLGITIYAQKFQGRVTITADESTSTAYMELSSLRSEDTAVYYCARRYFYYQSEAFDYWGQGTLVTVSS
VL: DIQMTQSPSSLSASVGDRVTITCRASQSISNYLNWYQQKPGKAPKLLIYAASTLQSGVPSRFSGSGSGTDFTLTISSLQPEDFATYYCQQSYSFPLTFGQGTKVEIK
notes: The phage clone was converted to human IgG and produced in Expi293 cells; also called mouse YKL-40 antibody 4E3-F2 (M3)
B4 registered a concentration giving a half-maximal response (EC50) in assay [7] of 0.067 nM. For the same molecule, the results for the dissociation constant (Kd) in assay [4] and in assay [8] were 57 nM and 67 nM, respectively.
